Measured values: US20200385745

B1: keratinase derived from Brevibacillus parabrevis (CGMCC No. 10798), parent keratinase (protein)
chain: AQTVPYGIPQIKAPAVHAQGYKGANVKVAVLDTGIHAAHPDLNVAGGASFVPSEPNATQDFQSHGTHVAGTIAALDNTIGVLGVAPSASLYAVKVLDRYGDGQYSWIISGIEWAVANNMDVINMSLGGPSGSTALKNTVDTANNRGVVVVAAAGNSGSSGSSSTVGYPAKYDSTIAVANVNSNNVRNSSSSAGPELDVSAPGTSILSTVPSSGYTSYTGTSMASPHVAGAAALILSKNPNLTNSQVRQRLENTATPLGDSFYYGKGLINVQAASN
B2: keratinase mutant S236C (protein)
chain: AQTVPYGIPQIKAPAVHAQGYKGANVKVAVLDTGIHAAHPDLNVAGGASFVPSEPNATQDFQSHGTHVAGTIAALDNTIGVLGVAPSASLYAVKVLDRYGDGQYSWIISGIEWAVANNMDVINMSLGGPSGSTALKNTVDTANNRGVVVVAAAGNSGSSGSSSTVGYPAKYDSTIAVANVNSNNVRNSSSSAGPELDVSAPGTSILSTVPSSGYTSYTGTSMASPHVAGAAALILCKNPNLTNSQVRQRLENTATPLGDSFYYGKGLINVQAASN
B3: keratinase mutant T218S (protein)
chain: AQTVPYGIPQIKAPAVHAQGYKGANVKVAVLDTGIHAAHPDLNVAGGASFVPSEPNATQDFQSHGTHVAGTIAALDNTIGVLGVAPSASLYAVKVLDRYGDGQYSWIISGIEWAVANNMDVINMSLGGPSGSTALKNTVDTANNRGVVVVAAAGNSGSSGSSSTVGYPAKYDSTIAVANVNSNNVRNSSSSAGPELDVSAPGTSILSTVPSSGYTSSTGTSMASPHVAGAAALILSKNPNLTNSQVRQRLENTATPLGDSFYYGKGLINVQAASN
B4: keratinase mutant N181D (protein)
chain: AQTVPYGIPQIKAPAVHAQGYKGANVKVAVLDTGIHAAHPDLNVAGGASFVPSEPNATQDFQSHGTHVAGTIAALDNTIGVLGVAPSASLYAVKVLDRYGDGQYSWIISGIEWAVANNMDVINMSLGGPSGSTALKNTVDTANNRGVVVVAAAGNSGSSGSSSTVGYPAKYDSTIAVANVDSNNVRNSSSSAGPELDVSAPGTSILSTVPSSGYTSYTGTSMASPHVAGAAALILSKNPNLTNSQVRQRLENTATPLGDSFYYGKGLINVQAASN
B5: keratinase double mutant N181D-T218S (protein)
chain: AQTVPYGIPQIKAPAVHAQGYKGANVKVAVLDTGIHAAHPDLNVAGGASFVPSEPNATQDFQSHGTHVAGTIAALDNTIGVLGVAPSASLYAVKVLDRYGDGQYSWIISGIEWAVANNMDVINMSLGGPSGSTALKNTVDTANNRGVVVVAAAGNSGSSGSSSTVGYPAKYDSTIAVANVDSNNVRNSSSSAGPELDVSAPGTSILSTVPSSGYTSYSGTSMASPHVAGAAALILSKNPNLTNSQVRQRLENTATPLGDSFYYGKGLINVQAASN

molecular target: keratin (substrate of the keratinase activity assay)

With B1 as the protein, how does the Km read?
The Km was 2100 µM.

For B2, which Km is on record?
Its Km is 2200 µM.

For B3, which Km is on record?
The Km was 1500 µM.

B4 was tested. Which Km did it give?
The Km was 1900 µM.

For B5, which Km is on record?
Its Km is 1800 µM.
